Each block holds one binder with its values, some of them ahead of it. Bridge positions count the residues as written; N and C are the ends. Ends that are not written are not given here.
Tests used:
[1] = target: T1, Mic60sol (Chaetomium thermophilum Mic60, residues 208–691) (Chaetomium thermophilum); assay: ITC; about 450 μM Mic19 construct in the syringe titrated into about 40 μM Mic60 construct in the cell; 10 °C; 20 mM HEPES/NaOH pH 7.5, 150 mM NaCl; untagged proteins; details: both partners purified
T1 construct: Mic60 of Chaetomium thermophilum, UniProt G0SHY5, residues 208-691; codon-optimized synthetic cDNA in a modified pET28a; source: E. coli BL21 DE3, purified (Ni-NTA, His6 tag cleaved with PreScission protease, size-exclusion chromatography); not shown: His6, N-terminal, cleaved

[2] = target: T2, Mic60solΔLBS1 (Chaetomium thermophilum Mic60sol with an internal deletion of LBS1) (Chaetomium thermophilum); assay: native gel or EMSA; blue native (BN)-PAGE of purified Mic60 constructs; details: both partners purified
T2 chain: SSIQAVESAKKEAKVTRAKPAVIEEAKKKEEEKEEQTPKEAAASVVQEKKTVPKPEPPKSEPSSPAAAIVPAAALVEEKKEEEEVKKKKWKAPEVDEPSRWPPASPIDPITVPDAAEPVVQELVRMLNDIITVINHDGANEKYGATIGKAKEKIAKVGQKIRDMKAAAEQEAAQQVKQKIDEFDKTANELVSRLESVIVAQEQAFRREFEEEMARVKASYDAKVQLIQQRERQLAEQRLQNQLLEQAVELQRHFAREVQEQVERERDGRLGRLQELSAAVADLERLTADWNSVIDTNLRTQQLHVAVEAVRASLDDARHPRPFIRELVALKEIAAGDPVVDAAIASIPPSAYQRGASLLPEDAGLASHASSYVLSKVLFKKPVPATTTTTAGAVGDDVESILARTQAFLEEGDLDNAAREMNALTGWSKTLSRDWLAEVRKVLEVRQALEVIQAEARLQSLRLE

Kd [1]: 390 nM
stoichiometry N [1]: 0.77 ± 0.01
Binder: RPLPESVEKARSEVVRCLREHDRRPLNCWQEVEAFKEEVRKLEKGWVDK (domain or fragment, disulfide 17-28) [isolated CHCH domain of Mic19 (Chaetomium thermophilum)]

stoichiometry N [2]: 2
B1: Mic60solΔLBS1 (Chaetomium thermophilum Mic60sol with an internal deletion of LBS1) (domain or fragment)
chain: T2 chain
modifications: His6 tag removed; outer limits 208-691 printed; LBS1 = 563-582 deduced from the printed truncations ending at 562 (no LBS) and 582 (LBS1 kept); check residues lie in the deleted segment and only …

— article PMC5460017, “Regulated membrane remodeling by Mic60 controls formation of mitochondrial crista junctions” (Nature Communications, 2017)
